# According to patent publication US20240141060A1 (Novartis, published 2024):
# Numbering of substitutions follows the chain as printed. Numbers in names are those of the source.
# T1: Recombinant Human 5′-Nucleotidase/CD73 Protein, CF (R&D Systems Cat: 5795-EN) (human, UniProt P21589 27-547)
# T1 construct: Bought protein; also called Human CD73-His; recombinant human CD73; not shown: His tag
# T1 sequence (looked up): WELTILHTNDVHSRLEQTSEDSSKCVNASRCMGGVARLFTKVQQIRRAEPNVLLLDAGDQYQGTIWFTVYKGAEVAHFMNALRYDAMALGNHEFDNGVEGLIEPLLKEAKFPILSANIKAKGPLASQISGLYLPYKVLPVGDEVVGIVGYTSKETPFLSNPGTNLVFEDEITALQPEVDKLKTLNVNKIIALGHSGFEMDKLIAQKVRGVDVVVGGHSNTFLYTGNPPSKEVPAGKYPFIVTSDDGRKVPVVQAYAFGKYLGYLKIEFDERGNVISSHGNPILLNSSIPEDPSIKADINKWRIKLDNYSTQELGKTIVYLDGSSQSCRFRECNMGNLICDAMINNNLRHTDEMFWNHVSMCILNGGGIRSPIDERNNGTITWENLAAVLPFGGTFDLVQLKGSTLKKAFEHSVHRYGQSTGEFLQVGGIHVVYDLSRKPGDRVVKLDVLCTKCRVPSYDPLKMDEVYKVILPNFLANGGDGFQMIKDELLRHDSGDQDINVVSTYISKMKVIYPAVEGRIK
# T2: Cynomolgus CD73/NT5E Protein (His Tag) (Sino Biological Cat: 90192-C08H-50) (cynomolgus monkey, UniProt A0A2K5V5U7 27-547)
# T2 construct: treated as one protein; also called Cynomolgus CD73-His; recombinant cynomolgus monkey CD73; not shown: His tag
# T2 sequence: T1 sequence (looked up) with M199T, T350A, V466I
# T3: Recombinant Mouse 5′-Nucleotidase/CD73 Protein, CF (R&D Systems Cat: 4488-EN) (mouse, UniProt Q61503 29-549, limits assumed)
# T3 construct: Bought protein; also called Mouse CD73-His; recombinant mouse CD73; not shown: His tag
# T3 sequence (looked up): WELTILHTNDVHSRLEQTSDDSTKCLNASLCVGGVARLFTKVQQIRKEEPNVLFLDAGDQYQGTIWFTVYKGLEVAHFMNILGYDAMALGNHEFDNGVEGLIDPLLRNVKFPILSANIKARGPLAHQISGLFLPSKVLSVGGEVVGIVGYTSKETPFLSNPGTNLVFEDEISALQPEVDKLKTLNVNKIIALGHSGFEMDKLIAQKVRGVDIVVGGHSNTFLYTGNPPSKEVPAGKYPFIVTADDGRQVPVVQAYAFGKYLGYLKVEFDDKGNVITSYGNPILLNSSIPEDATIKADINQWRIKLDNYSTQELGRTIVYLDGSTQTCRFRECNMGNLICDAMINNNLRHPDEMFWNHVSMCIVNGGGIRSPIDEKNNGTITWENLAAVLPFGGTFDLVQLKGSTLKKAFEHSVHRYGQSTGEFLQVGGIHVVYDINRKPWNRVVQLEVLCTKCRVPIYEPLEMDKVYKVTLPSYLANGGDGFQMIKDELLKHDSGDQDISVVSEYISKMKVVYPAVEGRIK
# T4: recombinant rat CD73 (Sino Biological 80375-R08H) (rat, UniProt P21588 29-551)
# T4 construct: Bought protein; also called rCD73; rat CD73/His
# T4 sequence (looked up): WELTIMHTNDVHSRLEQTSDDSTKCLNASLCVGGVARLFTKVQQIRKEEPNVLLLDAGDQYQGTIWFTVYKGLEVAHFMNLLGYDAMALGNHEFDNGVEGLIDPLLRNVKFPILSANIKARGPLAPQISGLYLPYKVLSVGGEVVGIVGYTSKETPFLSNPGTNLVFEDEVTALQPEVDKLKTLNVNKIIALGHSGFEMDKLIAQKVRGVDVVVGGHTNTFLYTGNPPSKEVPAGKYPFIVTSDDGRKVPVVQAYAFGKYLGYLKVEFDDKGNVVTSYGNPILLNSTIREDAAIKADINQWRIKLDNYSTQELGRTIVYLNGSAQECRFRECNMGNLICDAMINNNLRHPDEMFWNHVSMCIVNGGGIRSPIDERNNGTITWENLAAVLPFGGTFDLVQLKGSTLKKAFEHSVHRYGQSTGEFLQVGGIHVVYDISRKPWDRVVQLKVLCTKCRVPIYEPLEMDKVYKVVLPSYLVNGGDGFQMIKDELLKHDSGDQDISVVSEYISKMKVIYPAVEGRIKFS
# B1: anti-CD73 antibody 373.A (antibody, human IgG4 S228P, kappa, V domains shown)
# VH: EVQLLESGGGLVQPGGSLRLSCAASGFTFHRYAMSWVRQAPGKGLEWVSAISGSGMNTYYADSVKGRFTISRDNSKNTLYLQMNSLRAEDTAVYYCARGGLYGSGSYLSDFDLWGRGTLVTVSS
# VL: EIVLTQSPATLSVSPGERATLSCRASQSVGSNLAWYQQKPGQAPRLLIYGASTRATGIPARFSGSGSGTEFTLTISSLQSEDFAVYYCQQHNAFPYTFGGGTKVEIKR
# notes: IgG4 S228P format
# How the values were obtained:
# [1] = target: T1, Recombinant Human 5′-Nucleotidase/CD73 …; test: Biacore SPR, His-tagged CD73 captured by anti-His antibody on CM5 chip, IgG as analyte, 1:1 model
# Experimental: (§1) The anti-His Ab was directly immobilized onto a CM5 chip surface by amine coupling. The His-tagged human CD73/His, cynomolgus monkey CD73/His, mouse CD73/His or rat CD73/His was flowed over and captured at a desired resonance unit (RU) for an Rmax of 20. Antibody analyte concentrations in serial dilutions of IgG or Fab were flowed over at 60 μL/min. The sensorgrams were analyzed using the manufacturer's software for a 1:1 binding model.
# (§2) Therefore, given that 1:1 bidentate binding will favor avidity, the whole Ab affinities were used rather than Fab measurements.
# [2] = target: T2, Cynomolgus CD73/NT5E Protein (His Tag) …; test: as above
# Experimental: as §1, §2
# [3] = target: T3, Recombinant Mouse 5′-Nucleotidase/CD73 …; test: Biacore SPR, His-tagged CD73 captured by anti-His antibody on CM5 chip, antibody as analyte
# Experimental: as §1
# [4] = target: T4, recombinant rat CD73 (Sino Biological …); test: as above
# Experimental: as §1
binder,measurement,setting,value
B1,Kd,[1],0.991 nM
same,Kd,[2],0.068 nM
same,binding result,[3],no binding
same,binding result,[4],no binding
